The values below come from CN114835814A.

For the test, the target named is 人源PGII蛋白 (human pepsinogen II from human gastric mucosa, Lee Biosolutions, cat. 440-50) (human) (UniProt P20142). The test can be described thus: indirect ELISA, human-derived PGII coated 2 μg/mL, culture supernatant diluted 50-fold.
UniProt P20142, sequence (P20142 17-388): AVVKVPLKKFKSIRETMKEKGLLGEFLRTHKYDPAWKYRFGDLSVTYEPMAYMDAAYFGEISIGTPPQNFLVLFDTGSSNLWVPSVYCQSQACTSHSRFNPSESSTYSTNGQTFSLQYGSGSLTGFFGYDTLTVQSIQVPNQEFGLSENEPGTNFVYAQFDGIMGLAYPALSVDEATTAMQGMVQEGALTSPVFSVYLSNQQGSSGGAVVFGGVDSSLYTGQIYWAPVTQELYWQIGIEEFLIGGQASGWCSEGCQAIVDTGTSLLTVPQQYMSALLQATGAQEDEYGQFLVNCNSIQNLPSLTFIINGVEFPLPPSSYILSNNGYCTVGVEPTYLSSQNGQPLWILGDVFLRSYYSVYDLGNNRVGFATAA

B1: 鼠单克隆抗体1A7 (antibody, V domains shown)
VH: EVKLEESGGGLVQPGGSMKLSCVASGFAFSNYWMNWVRQSPEKGLEWVAEIRLKSNNYATHYAESVKGRFTISRDDSKSSVDLQMNNLRAEDTGTYYCNPFFYDYGYWGQGTTLTVSS
VL: QIVLTQSPAILSASPGEKVTISCSASSSVSYMYWYQQKPGSSPKPWIYRTSNLASGVPARFSGSGSGTSYSLTISSMEAEDAATYYCQQYHSYPRTFGGGTKLEIK
Consider B1, for which the OD450 worked out at 1.7 OD450.

B2: 鼠单克隆抗体3G10 (antibody, part only; not given: Light chain variable domain, V domains shown, part only)
VH: EVQLQQSGAELVKPGASVKLSCTASGFNIKDSYIHWVTQRPDQGLEWIGMIDPTNDNIRYDPKFQGRATITADTSSNTAYLQLSSLTSEDTAVYFCARDGTSLDYWGQGTSLTVSS
In turn, B2 displayed an OD450 of 1.72 OD450.
